The target of this experiment is glutathione-S-transferase (GST)-tagged recombinant RARa ligand binding domain (LBD) (UniProt P10276). In words: cell-free TR-FRET coactivator recruitment assay; the concentration varied is that of the retinoid Rald, not of either protein. (TR-FRET usually uses a lanthanide donor and a delayed reading to cut background.)
Chain of glutathione-S-transferase (GST)-tagged recombinant RARa ligand binding domain (LBD) (P10276 183-417 limits assumed): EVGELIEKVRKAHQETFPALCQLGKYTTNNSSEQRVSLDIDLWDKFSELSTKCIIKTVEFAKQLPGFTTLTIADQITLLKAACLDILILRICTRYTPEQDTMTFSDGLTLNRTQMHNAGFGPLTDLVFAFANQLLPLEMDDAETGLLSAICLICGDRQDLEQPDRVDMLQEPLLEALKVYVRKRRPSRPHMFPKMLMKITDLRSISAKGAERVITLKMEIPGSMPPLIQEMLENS

Turning to “fluorescein-labeled coactivator peptide (PGC-1a)”, the EC50 of retinaldehyde (Rald, small-molecule ligand) for recruitment of PGC-1a to RARa was determined as 82 nM.

Source of the values: patent publication US20140378530A1.
